Results taken from US20130178394A1 (UNIVERSITY OF TOKYO, published 2013).
Bridge positions count the residues as written; N and C are the ends. Square brackets hold non-standard residues; d marks the D form. NMeF = CN[C@@H](Cc1ccccc1)C(=O)O; NMeS = CN[C@@H](CO)C(=O)O; Sar = CNCC(=O)O

Target: T1, biotinylated Avi-His-GB1-E6AP-HECT domain (human, UniProt P06654 228-282; Q05086 495-852, limits assumed, biotin on the Avi tag)
T1 construct: domain: Protein GB1 domain;domain: HECT domain; also called C terminal domain of ubiquitin ligase E6AP
Experiment: SPR, BIACORE T100, Avi-His-GB1-E6AP-HECT on streptavidin chip, peptide as analyte
Method: The binding constant of MCP11 to E6AP-HECT was analyzed by a surface plasmon resonance using BIACORE T100.
A streptavidin sensor chip (SA chip certified) was used as a sensor chip, an Avi-His-GB1-E6AP-HECT was used as a ligand, and MCP11 was used as an analyte.

T1 sequence (P06654 228-282, tags or fused parts left off): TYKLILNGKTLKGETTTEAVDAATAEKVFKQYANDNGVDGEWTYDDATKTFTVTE

- Kd: 0.5 nM
B1: MCP11, Cyclo(-Ac-DWCDVMeSGRMeFMeGYMeFPC)G-OH (chemically synthesized cyclic N-methyl peptide) (peptide)
peptide: {CH2CO}-[dW]CDV[NMeS]GR[NMeF][Sar]Y[NMeF]PCG-OH
modifications: thioether N-13
notes: The formula stands in the summary (h-0009)
